Data published in patent US20170051281A1 (TRUSTEES OF COLUMBIA UNIVERSITY IN THE CITY OF NEW YORK, published 2017).

Biological target: T1, Centromere protein F (CENPF) (human, UniProt P49454 1-3111, limits assumed)
T1 construct: also called CENF; PRO 1779
Experiment: co-immunoprecipitation

T1 sequence (P49454 1-3111 limits assumed): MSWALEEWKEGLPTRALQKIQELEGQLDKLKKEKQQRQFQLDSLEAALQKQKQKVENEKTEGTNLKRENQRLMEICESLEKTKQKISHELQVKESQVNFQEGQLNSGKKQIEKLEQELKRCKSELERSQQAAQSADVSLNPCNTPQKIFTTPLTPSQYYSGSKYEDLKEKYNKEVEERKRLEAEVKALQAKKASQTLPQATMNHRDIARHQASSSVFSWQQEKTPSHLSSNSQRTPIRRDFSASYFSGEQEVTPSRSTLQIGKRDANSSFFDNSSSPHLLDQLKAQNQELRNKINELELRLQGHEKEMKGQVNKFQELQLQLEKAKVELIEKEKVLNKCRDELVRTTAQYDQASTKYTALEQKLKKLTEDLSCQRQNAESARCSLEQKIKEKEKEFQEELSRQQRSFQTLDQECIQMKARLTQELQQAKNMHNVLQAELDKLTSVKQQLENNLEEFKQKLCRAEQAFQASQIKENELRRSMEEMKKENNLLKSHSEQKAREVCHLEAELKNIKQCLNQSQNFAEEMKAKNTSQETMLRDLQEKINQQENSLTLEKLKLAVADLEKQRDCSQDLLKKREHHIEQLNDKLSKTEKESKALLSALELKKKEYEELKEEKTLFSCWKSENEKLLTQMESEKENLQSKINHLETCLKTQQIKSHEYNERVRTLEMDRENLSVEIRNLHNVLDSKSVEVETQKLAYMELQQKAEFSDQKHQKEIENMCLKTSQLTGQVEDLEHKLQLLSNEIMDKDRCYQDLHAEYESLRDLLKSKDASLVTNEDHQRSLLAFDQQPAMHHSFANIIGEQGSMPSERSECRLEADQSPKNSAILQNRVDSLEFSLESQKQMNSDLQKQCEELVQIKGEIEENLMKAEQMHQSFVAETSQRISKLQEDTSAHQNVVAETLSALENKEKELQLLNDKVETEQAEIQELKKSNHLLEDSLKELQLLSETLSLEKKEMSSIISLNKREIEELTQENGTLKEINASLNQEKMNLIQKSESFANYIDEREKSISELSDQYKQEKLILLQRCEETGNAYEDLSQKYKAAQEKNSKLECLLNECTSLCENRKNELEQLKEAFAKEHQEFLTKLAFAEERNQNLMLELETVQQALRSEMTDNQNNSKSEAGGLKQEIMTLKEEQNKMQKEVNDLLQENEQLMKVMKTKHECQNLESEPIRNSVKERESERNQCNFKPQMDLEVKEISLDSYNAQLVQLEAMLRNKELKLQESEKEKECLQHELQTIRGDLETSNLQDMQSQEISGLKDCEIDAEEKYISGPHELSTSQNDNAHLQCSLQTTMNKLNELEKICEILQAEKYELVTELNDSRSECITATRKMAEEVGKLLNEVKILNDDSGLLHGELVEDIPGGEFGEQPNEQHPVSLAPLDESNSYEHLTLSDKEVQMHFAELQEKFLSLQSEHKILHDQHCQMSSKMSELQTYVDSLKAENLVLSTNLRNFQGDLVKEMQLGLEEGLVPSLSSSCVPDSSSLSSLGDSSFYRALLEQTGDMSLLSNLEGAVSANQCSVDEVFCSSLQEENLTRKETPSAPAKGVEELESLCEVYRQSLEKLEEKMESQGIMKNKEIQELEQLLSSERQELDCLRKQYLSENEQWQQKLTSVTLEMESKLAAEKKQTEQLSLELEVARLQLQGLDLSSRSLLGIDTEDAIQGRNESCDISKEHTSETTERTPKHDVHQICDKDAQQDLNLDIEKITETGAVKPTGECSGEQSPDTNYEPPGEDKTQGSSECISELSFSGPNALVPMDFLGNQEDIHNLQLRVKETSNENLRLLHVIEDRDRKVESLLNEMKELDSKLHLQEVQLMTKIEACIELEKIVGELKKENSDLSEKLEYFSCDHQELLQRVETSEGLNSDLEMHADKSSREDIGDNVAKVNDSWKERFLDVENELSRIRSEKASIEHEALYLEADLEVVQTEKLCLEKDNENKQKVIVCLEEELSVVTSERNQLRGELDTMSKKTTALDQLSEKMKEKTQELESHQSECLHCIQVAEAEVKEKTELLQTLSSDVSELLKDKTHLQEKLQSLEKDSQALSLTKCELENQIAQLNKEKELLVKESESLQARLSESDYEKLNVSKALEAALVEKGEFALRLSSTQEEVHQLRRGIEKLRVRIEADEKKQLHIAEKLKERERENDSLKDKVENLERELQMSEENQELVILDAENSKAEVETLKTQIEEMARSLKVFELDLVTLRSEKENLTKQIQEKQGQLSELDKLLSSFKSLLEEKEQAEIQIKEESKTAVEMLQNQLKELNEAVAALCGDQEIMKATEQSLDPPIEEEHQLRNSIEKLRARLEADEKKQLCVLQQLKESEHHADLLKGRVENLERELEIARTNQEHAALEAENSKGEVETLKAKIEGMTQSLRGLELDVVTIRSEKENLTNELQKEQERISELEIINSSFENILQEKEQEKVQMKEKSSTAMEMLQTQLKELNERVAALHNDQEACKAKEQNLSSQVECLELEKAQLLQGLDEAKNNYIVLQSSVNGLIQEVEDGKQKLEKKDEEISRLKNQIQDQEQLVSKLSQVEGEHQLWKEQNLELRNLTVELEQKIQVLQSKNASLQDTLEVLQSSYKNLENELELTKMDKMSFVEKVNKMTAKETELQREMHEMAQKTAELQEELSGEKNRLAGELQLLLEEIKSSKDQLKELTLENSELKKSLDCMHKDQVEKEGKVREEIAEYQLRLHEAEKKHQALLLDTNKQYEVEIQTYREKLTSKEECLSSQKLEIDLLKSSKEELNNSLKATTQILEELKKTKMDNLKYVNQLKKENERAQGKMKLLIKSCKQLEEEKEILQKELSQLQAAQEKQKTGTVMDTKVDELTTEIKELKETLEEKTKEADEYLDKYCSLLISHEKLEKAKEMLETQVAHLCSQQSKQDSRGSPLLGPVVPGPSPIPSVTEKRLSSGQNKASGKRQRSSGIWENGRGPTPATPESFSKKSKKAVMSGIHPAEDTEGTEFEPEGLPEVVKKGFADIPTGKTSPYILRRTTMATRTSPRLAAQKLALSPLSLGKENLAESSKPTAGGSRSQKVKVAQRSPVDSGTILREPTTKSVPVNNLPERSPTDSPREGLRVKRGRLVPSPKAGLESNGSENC

- binding result: no binding
B1: Forkhead box protein M1 (FOXM1) (other)
chain: MKTSPRRPLILKRRRLPLPVQNAPSETSEEEPKRSPAQQESNQAEASKEVAESNSCKFPAGIKIINHPTMPNTQVVAIPNNANIHSIITALTAKGKESGSSGPNKFILISCGGAPTQPPGLRPQTQTSYDAKRTEVTLETLGPKPAARDVNLPRPPGALCEQKRETCDGEAAGCTINNSLSNIQWLRKMSSDGLGSRSIKQEMEEKENCHLEQRQVKVEEPSRPSASWQNSVSERPPYSYMAMIQFAINSTERKRMTLKDIYTWIEDHFPYFKHIAKPGWKNSIRHNLSLHDMFVRETSANGKVSFWTIHPSANRYLTLDQVFKQQQKRPNPELRRNMTIKTELPLGARRKMKPLLPRVSSYLVPIQFPVNQSLVLQPSVKVPLPLAASLMSSELARHSKRVRIAPKVLLAEEGIAPLSSAGPGKEEKLLFGEGFSPLLPVQTIKEEEIQPGEEMPHLARPIKVESPPLEEWPSPAPSFKEESSHSWEDSSQSPTPRPKKSYSGLRSPTRCVSEMLVIQHRERRERSRSRRKQHLLPPCVDEPELLFSEGPSTSRWAAELPFPADSSDPASQLSYSQEVGGPFKTPIKETLPISSTPSKSVLPRTPESWRLTPPAKVGGLDFSPVQTSQGASDPLPDPLGLMDLSTTPLQSAPPLESPQRLLSSEPLDLISVPFGNSSPSDIDVPKPGSPEPQVSGLAANRSLTEGLVLDTMNDSLSKILLDISFPGLDEDPLGPDNINWSQFIPELQ
notes: also called FKHL16; FOXM1B
